Measured values: US20240092891A1

Biological target: human CLDN18.1 (human) (UniProt P56856)
Experiment: flow cytometry on human CLDN18.1-HEK293 cells, antibody at 100 µg/mL

human CLDN18.1 (human), sequence (P56856 whole entry): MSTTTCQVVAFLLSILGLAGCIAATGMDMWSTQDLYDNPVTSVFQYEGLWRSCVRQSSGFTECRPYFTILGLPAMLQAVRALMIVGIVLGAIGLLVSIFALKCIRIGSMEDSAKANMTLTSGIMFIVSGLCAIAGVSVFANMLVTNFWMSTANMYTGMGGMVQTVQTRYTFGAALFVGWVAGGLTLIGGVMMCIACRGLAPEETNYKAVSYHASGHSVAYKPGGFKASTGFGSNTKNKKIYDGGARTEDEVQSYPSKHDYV

positive rate of cell binding: 5.5%
B1: humanized antibody NA7-S-H2 (Fc fusion, not shown: a dimerising Fc or GST)
chain: EVQLVESGGGLVQPGGSLRLSCAASGSFFRIVAMGWYRQAPGKGRELVATITRGGSTYYADSMKGRSTISRDNAKNTVYLQMNSLKPEDTAVYYCNVRVEVPFMQPNDYWGQGTLVTVSS
